According to patent US8796201B2 (The Board of Trustees of the Leland Stanford Junior …, priority 2002, dated 2014):

Assays:
[1] = Double-blind crossover gluten challenge: 72-hour quantitative fecal fat test; format: in vivo, human (Celiac Sprue patients)
Source text: It was first established that a low-dose, short-term (5-10 g/day for 14 days) gluten oral supplement induces fat and carbohydrate malabsorption when given to asymptomatic Celiac Sprue patients on an otherwise gluten free diet. This protocol was modified to examine the effect of gluten pre-treated with pepsin, trypsin and chymotrypsin (PTC-Gluten) as compared to PTC-Gluten additionally treated with PEP (PTC-Gluten+PEP). In this study, Celiac patients maintaining a gluten-free diet ingested a supplement of 5 g/day gluten as PTC-Gluten or PTC-Gluten+PEP in an orange-lemon juice vehicle for 14 days in a double-blind crossover manner. A 6-week washout interval between individual arms of the crossover trial allowed patients to recover completely from the effects, if any, of the test material in the first arm.
Subjects and protocols: This study was approved by the Institutional Review Board of the Palo Alto Medical Foundation in Palo Alto, Calif., and all participants in the study were counseled regarding risks and signed an informed consent document. 22 patients were recruited who were in symptomatic remission on a gluten-free diet. Two patients dropped out of the study, one near the end of the first stage and the other prior to the second stage. The 20 patients who completed the study included 7 men and […] aged 21 to 78 (mean age 49). The time since diagnosis for the 20 patients ranged from 3 months to 18 years (mean 6 years). Patients provided copies of their initial small-intestinal biopsy pathology report and laboratory reports documenting a history of at least one positive celiac antibody (gliadin, endomysial or transglutaminase) to verify a diagnosis of Celiac Sprue. They also completed an entry questionnaire inquiring about their medical history, adherence to the gluten-free diet, and current symptoms. The format of the study was a double-blinded crossover in which each patient consumed either a low daily dose of a gluten supplement (5 g; equivalent of one-half slice of bread) that was predigested with pepsin, trypsin and chymotrypsin alone (PTC-Gluten) or PTC-Gluten treated with prolyl endopeptidase (PTC-Gluten+PEP). The PEP in the latter orange juice mixture was completely inactivated through a heating process following proteolysis of the gliadin peptides. […]
Studied variables: During each stage of the study, patients completed a daily questionnaire inquiring about symptoms and their adherence to the gluten-free diet. […] The serum anti-gliadin IgA antibodies and anti-tissue transglutaminase IgA and IgG antibodies were measured by an enzyme linked immunosorbent assay (ELISA) kit (INOVA Diagnostics, Inc., San Diego, Calif.). […] Total serum IgA levels were determined by an Integra instrument (Roche) (normal <81 mg/dl). […]

[2] = Allergenicity of the denatured protein; set-up: species or system rodents, rabbits and humans; details: in vivo
[3] = Retention of PEP activity on lyophilization, enteric coating, storage and tabletting; format: physicochemical
Procedure: Lyophilization of M. xanthus PEP was performed as follows. The PEP was purified as described in Example 3, and concentrated to an initial concentration of 7.7 mg/ml by Tangential-Flow Filtration (TFF) using a 10K MWCO Pellicon difiltration membrane (Millipore, PLCGC10, 50 cm, Cat. No. PXC010C50). TFF (using a LabScale TFF from Millipore, Cat. No. 29751) was performed for approximately 12 hours (pressure of 50 psi (retentate)/30 psi (permeant)), with periodic addition to the reservoir of 50 mM Sodium Phosphate, 3% Sucrose pH 7.5. Thereafter, PEG-4000 was added with a target concentration of 1%. The final protein concentration was 70-100 mg/ml. This material was centrifuged, then lyophilized. The lyophilization was performed in square petri dishes (Falcon Cat. No. 35-1112) in a DuraStop lyophilizer using parameters outlined in the Table below. Typically, 0.7-0.85 mg PEP was present per mg of lyophilized material.
The enteric coating was mixed vigorously in a beaker on a stir plate. The solution was then decanted into a spray bottle. Rat capsules were carefully spread on paper towels in groups of 20 and the enteric coating solution sprayed onto the capsules. Warm air was used to partially dry the capsules before moving them to a dry paper towel where they air-dried for 30 minutes before the next coat was applied. A total of 3 coats were applied in order to cover all sides of the capsules. […]

[4] = All patients with full Fecal Fat data (N = 17)
[5] = Subgroup with normal to Mild Steatorrhea (N = 8)

B1: PEP: prolyl endopeptidase; Examples 1-2: from Flavobacterium meningosepticum (US Biological); Example 11: source not stated (protein, UniProt P27028 21-705, looked up)
Prolyl endopeptidase: QNSNVLKYPETKKVSHTDTYFGTQVSDPYRWLEDDRAEDTKAWVQQEVKFTQDYLAQIPFRDQLKKQLMDIWNYEKISAPFKKGKYTYFSKNDGLQAQSVLYRKDAAGKTEVFLDPNKFSEKGTTSLASVSFNKKGTLVAYSISEGGSDWNKIIILDAETKKQLDETLLDVKFSGISWLGDEGFFYSSYDKPKEGSVLSGMTDKHKVYFHKLGTKQSQDELIIGGDKFPRRYIGAYVTDDQRYLVVSAANATNGNELYIKDLKNKTDFIPIITGFDSNVNVADTDGDTLYLFTDKDAPNKRLVKTTIQNPKAETWKDVIAETSEPLEINTGGGYFFATYMKDAIDQVKQYDKNGKLVRAIKLPGSGNASGFGGEKTEKDLYYSFTNYITPPTIFKYNVTTGNSEVYQKPKVKFNPENYVSEQVFYTSSDGTKIPMMISYKKGLKKDGKNPTILYSYGGFNISLQPAFSVVNAIWMENGGIYAVPNIRGGGEYGKKWHDAGTKMQKKNVFNDFIAAGEYLQKNGYTSKEYMALSGRSNGGLLVGATMTMRPDLAKVAFPGVGVLDMLRYNKFTAGAGWAYDYGTAEDSKEMFEYLKSYSPVHNVKAGTCYPSTMVITSDHDDRVVPAHSFKFGSELQAKQSCKNPILIRIETNAGHGAGRSTEQVVAENADLLSFALYEMGIKSLK
In the case of B1, the “PEP Effective (patients / patients with positive gluten challenge), fecal fat” value [1, 4] is reported as 5/7, the “PEP Effective, fecal fat” value [1, 4] is reported as 71% and the “PEP Effective (patients / patients with positive gluten challenge), fecal fat” value [1, 5] is reported as 4/4. The “PEP Effective, fecal fat” value [1, 5] was 100%.

B2: FM PEP: recombinant prolyl endopeptidase from Flavobacterium meningosepticum (Genbank D10980) (protein)
chain: QNSNVLKYPETKKVSHTDTYFGTQVSDPYRWLEDDRAEDTKAWVQQEVKFTQDYLAQIPFRDQLKKQLMDIWNYEKISAPFKKGKYTYFSKNDGLQAQSVLYRKDAAGKTEVFLDPNKFSEKGTTSLASVSFNKKGTLVAYSISEGGSDWNKIIILDAETKKQLDETLLDVKFSGISWLGDEGFFYSSYDKPKEGSVLSGMTDKHKVYFHKLGTKQSQDELIIGGDKFPRRYIGAYVTDDQRYLVVSAANATNGNELYIKDLKNKTDFIPIITGFDSNVNVADTDGDTLYLFTDKDAPNKRLVKTTIQNPKAETWKDVIAETSEPLEINTGGGYFFATYMKDAIDQVKQYDKNGKLVRAIKLPGSGNASGFGGEKTEKDLYYSFTNYITPPTIFKYNVTTGNSEVYQKPKVKFNPENYVSEQVFYTSSDGTKIPMMISYKKGLKKDGKNPTILYSYGGFNISLQPAFSVVNAIWMENGGIYAVPNIRGGGEYGKKWHDAGTKMQKKNVFNDFIAAGEYLQKNGYTSKEYMALSGRSNGGLLVGATMTMRPDLAKVAFPGVGVLDMLRYNKFTAGAGWAYDYGTAEDSKEMFEYLKSYSPVHNVKAGTCYPSTMVITSDHDDRVVPAHSFKFGSELQAKQSCKNPILIRIETNAGHGAGRSTEQVVAENADLLSFALYEMGIKSLK
With B2 the “allergenicity of the denatured protein” value [2] was “non-allergenic in rodents, rabbits and humans”.

B3: MX PEP: novel recombinant prolyl endopeptidase from Myxococcus xanthus (Genbank AF127082, SEQ ID NO:47) (protein, listed as Myxococcus xanthus)
chain: MSYPATRAEQVVDTLHGVQVADPYRWLEDEKAPEVQTWMTAQNAHAREALAKFPGREALAARFKELFYTDSVSTPSRRNGRFFYVRTHKDKEKAILYWRQGESGQEKVLLDPNGWSKDGTVSLGTWAVSWDGKKVAFAQKPNAADEAVLHVIDVDSGEWSKVDVIEGGKYATPKWTPDSKGFYYEWLPTDPSIKVDERPGYTTIRYHTLGTEPSKDTVVHERTGDPTTFLQSDLSRDGKYLFVYILRGWSENDVYWKRPGEKDFRLLVKGVGAKYEVHAWKDRFYVLTDEGAPRQRVFEVDPAKPARASWKEIVPEDSSASLLSVSIVGGHLSLEYLKDATSEVRVATLKGKPVRTVQLPGVGAASNLMGLEDLDDAYYVFTSFTTPRQIYKTSVSTGKSELWAKVDVPMNPEQYQVEQVFYASKDGTKVPMFVVHRKDLKRDGNAPTLLYGYGGFNVNMEANFRSSILPWLDAGGVYAVANLRGGGEYGKAWHDAGRLDKKQNVFDDFHAAAEYLVQQKYTQPKRLAIYGGSNGGLLVGAAMTQRPELYGAVVCAVPLLDMVRYHLFGSGRTWIPEYGTAEKPEDFKTLHAYSPYHHVRPDVRYPALLMMAADHDDRVDPMHARKFVAAVQNSPGNPATALLRIEANAGHGGADQVAKAIESSVDLYSFLFQVLDVQGAQGGVAAQGR
For B3, the “specific activity upon lyophilization” value [3] was “No loss of specific activity”.
